Reference: patent US20180355043A1

Legend:
[1] = target: DR4G99: Human HLA-DRA1*01:02/DRB1*01:01 ECD with collagen peptide CII_1236-1249 (human); test: MSD ECL; antigen coated; protocol of Example 3
[2] = target: DR4G99: Human HLA-DRA1*01:02/DRB1*01:01 ECD with collagen peptide CII_1236-1249 (human); test: MSD ECL; antigen coated; mAb 0.2 µg/ml

ECL signal [1]: 697 ECL
ECL signal [2]: 15500 ECL
B1: DR4B4 (antibody, V domains shown)
VH: QVQLKESGPGLVAPSQSLSITCTISGFSLTSYGVHWVRQPPGKGLEWLVVIWSDGSTTYNSALKSRLSISKDNSKSQVFLKMNSLQTDDTAIYYCASHYGSTLAFASWGHGTLVTVSA
VL: DIQMTQSPASLSASVGETVTIICRASVNIYSYLAWYQQKQGKSPQLLVYNAKILAEGVPSRFSGSGSGTQFSLKINSLQPEDFGSYYCQHHYGPFTFGSGTKLEIK
